Patent publication US20200308257A1 (VISTERRA, published 2020)

How the values were obtained:
Experiment in all cases: cell-based or functional assay
[1] = molecular target: T1, hemagglutinin (HA) of influenza A/PR/8/1934 (H1N1) (influenza A virus (H1N1), UniProt P03452 18-565)
[2] = molecular target: hemagglutinin (HA) of influenza A/South Africa/80837/2017 (H1N1) (influenza A virus (H1N1))
[3] = molecular target: hemagglutinin (HA) of influenza A/South Africa/80714/2017 (H3N2) (influenza A virus (H3N2))
[4] = molecular target: hemagglutinin (HA) of influenza A/South Africa/80919/2017 (H3N2) (influenza A virus (H3N2))
[5] = molecular target: hemagglutinin (HA) of influenza A/South Africa/80316/2017 (H3N2) (influenza A virus (H3N2))
[6] = molecular target: hemagglutinin (HA) of influenza A/South Africa/80308/2017 (H3N2) (influenza A virus (H3N2))
[7] = molecular target: hemagglutinin (HA) of influenza A/South Africa/80811/2017 (H1N1) (influenza A virus (H1N1))
[8] = molecular target: hemagglutinin (HA) of influenza A/South Africa/81313/2017 (H3N2) (influenza A virus (H3N2))
[9] = molecular target: hemagglutinin (HA) of influenza A/South Africa/80836/2017 (H1N1) (influenza A virus (H1N1))
[10] = molecular target: hemagglutinin (HA) of influenza A/South Africa/0808006/2018 (H1N1) (influenza A virus (H1N1))
[11] = molecular target: hemagglutinin (HA) of influenza A/South Africa/80860/2017 (H1N1) (influenza A virus (H1N1))
[12] = molecular target: hemagglutinin (HA) of influenza A/South Africa/80521/2017 (H3N2) (influenza A virus (H3N2))
[13] = molecular target: hemagglutinin (HA) of influenza A/South Africa/80839/2017 (H3N2) (influenza A virus (H3N2))
[14] = molecular target: hemagglutinin (HA) of influenza A/South Africa/81130/2017 (H3N2) (influenza A virus (H3N2))
[15] = molecular target: T1, hemagglutinin (HA) of influenza …; remark: listed apart in the source

T1 sequence (P03452 18-565 limits assumed): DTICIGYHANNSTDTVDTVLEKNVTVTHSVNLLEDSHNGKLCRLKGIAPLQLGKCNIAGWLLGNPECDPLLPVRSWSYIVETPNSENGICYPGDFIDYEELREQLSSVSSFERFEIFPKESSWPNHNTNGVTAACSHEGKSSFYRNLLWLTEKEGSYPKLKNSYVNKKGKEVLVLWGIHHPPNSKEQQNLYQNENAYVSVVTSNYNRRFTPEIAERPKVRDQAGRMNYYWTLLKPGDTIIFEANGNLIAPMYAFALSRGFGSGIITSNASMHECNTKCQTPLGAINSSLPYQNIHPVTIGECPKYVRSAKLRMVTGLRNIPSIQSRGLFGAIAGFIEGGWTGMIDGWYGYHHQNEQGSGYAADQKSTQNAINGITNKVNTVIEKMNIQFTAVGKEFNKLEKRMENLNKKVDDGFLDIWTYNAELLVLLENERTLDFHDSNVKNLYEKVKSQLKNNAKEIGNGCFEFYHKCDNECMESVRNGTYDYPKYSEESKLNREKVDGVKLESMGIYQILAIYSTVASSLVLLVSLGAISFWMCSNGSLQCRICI

B1: VIS410 (antibody, V domains shown)
VH: QVQLLETGGGLVKPGQSLKLSCAASGFTFTSYAMHWVRQPPGKGLEWVAVVSYDGNYKYYADSVQGRFTISRDNSKNTLYLQMNSLRAEDTAVYYCAKDSRLRSLLYFEWLSQGYFNPWGQGTTLTVSS
VL: DIQMTQSPSSLSASVGDRVTITCRSSQSITFDYKNYLAWYQQKPGKAPKLLIYWGSYLESGVPSRFSGSGSGTDFTLTISSLQPEDFATYYCQQHYRTPPSFGQGTKVEIK
- EC50, antiviral activity against wild-type A/PR/8/1934 (H1N1) virus [1]: 7.4 nM
- IC50, phenotypic IC50 assay (virus infection of MDCK cells) [2]: 0.25 mg/L
- IC50, phenotypic IC50 assay (virus infection of MDCK cells) [3]: 0.13 mg/L
- IC50, phenotypic IC50 assay (virus infection of MDCK cells) [4]: 2.55 mg/L
- IC50, phenotypic IC50 assay (virus infection of MDCK cells) [5]: 0.57 mg/L
- IC50, phenotypic IC50 assay (virus infection of MDCK cells) [6]: 0.91 mg/L
- IC50, phenotypic IC50 assay (virus infection of MDCK cells) [7]: 0.38 mg/L
- IC50, phenotypic IC50 assay (virus infection of MDCK cells) [8]: 1.38 mg/L
- IC50, phenotypic IC50 assay (virus infection of MDCK cells) [9]: 0.73 mg/L
- IC50, phenotypic IC50 assay (virus infection of MDCK cells) [10]: 0.42 mg/L
- IC50, phenotypic IC50 assay (virus infection of MDCK cells) [11]: 0.26 mg/L
- IC50, phenotypic IC50 assay (virus infection of MDCK cells) [12]: 1.09 mg/L
- IC50, phenotypic IC50 assay (virus infection of MDCK cells) [13]: 0.41 mg/L
- IC50, phenotypic IC50 assay (virus infection of MDCK cells) [14]: 1 mg/L
- IC50 (µg/mL), baloxavir-sensitive A/Puerto Rico/8/1934_H1N1 WT virus [15]: 0.3 µg/mL
